Assay results as given in US12221465.

Molecular target: empty A2-SABR pulsed with soluble MART1 peptide (…) (Homo sapiens; human) (UniProt P61769)
Test: cell-based or functional assay

- fold decrease in antigen sensitivity (concentration of the peptide required for half-maximal signaling), SABR signaling against TCR signaling: 30 fold
Substance: F5 TCR
